Biological target: His×6-YY1(wt) (human, UniProt P25490 1-414)
Assay: SPR

Kd: 0.258 µM
B1: His×6-YY1(260–414) (domain or fragment)
chain: LPPGGIPGIDLSDPKQLAEFARMKPRKIKEDDAPRTIACPHKGCTKMFRDNSAMRKHLHTHGPRVHVCAECGKAFVESSKLKRHQLVHTGEKPFQCTFEGCGKRFSLDFNLRTHVRIHTGDRPYVCPFDGCNKKFAQSTNLKSHILTHAKAKNNQ
